This is an account of results in paper PMC2386288, “Kinetics and Ligand-Binding Preferences of Mycobacterium tuberculosis Thymidylate Synthases, ThyA and ThyX” (PLoS ONE, 2008).

Read-outs that look alike come from different tables or passages of the source.

One series concerns the target T1, ThyX (Mycobacterium tuberculosis, UniProt P9WG57).
T1 construct: C-terminal His-Tag
Briefly: biochemical.

The target in another series is T2, ThyA (Mycobacterium tuberculosis, UniProt P9WFR9).
T2 construct: N-terminal His-Tag
T2 sequence (P9WFR9 2-266): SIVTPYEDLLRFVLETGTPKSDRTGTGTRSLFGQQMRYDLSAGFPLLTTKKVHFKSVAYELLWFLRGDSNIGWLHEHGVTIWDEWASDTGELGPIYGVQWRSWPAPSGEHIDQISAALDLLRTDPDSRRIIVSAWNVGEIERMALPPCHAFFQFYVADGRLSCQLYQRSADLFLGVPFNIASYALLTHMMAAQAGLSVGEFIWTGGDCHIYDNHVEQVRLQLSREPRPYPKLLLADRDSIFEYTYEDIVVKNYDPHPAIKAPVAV
The experiment in a line: biochemical.

For series [1], the system named is O=c1ccn([C@H]2C[C@H](O)[C@@H](COP(=O)(O)O)O2)c(=O)[nH]1. Briefly: purified protein.
Series [2] concerns Nc1nc2c(c(=O)[nH]1)N1CN(c3ccc(C(=O)N[C@@H](CCC(=O)O)C(=O)O)cc3)CC1CN2. The experiment in a line: purified protein.
The test system of series [3] is NC(=O)C1=CN([C@@H]2O[C@H](COP(=O)(O)OP(=O)(O)OC[C@H]3O[C@@H](n4cnc5c(N)ncnc54)[C@H](OP(=O)(O)O)[C@@H]3O)[C@@H](O)[C@H]2O)C=CC1. Briefly: purified protein. The settings on record: FAD.
The series “SEC” concerns the molecule itself. Briefly: SEC.

Regarding `O=c1[nH]c(=O)n([C@H]2C[C@H](O)[C@@H](COP(=O)(O)O)O2)cc1F` [FdUMP, 5-Fluoro-2′-deoxyuridine 5′-monophosphate], the Ki on ThyX is 100 ± 10 nM; on ThyA it was 2 ± 0.2 nM.
Turning to ThyA (Mycobacterium tuberculosis H37Rv), the Km was 4 ± 0.7 µM in series [1] (mTHF) and 70 ± 30 µM in series [2].
Regarding ThyX (Mycobacterium tuberculosis H37Rv), the Km in series [1] (FAD) turned out to be 3 ± 0.7 µM; in series [3], 47 ± 10 µM; in series [2] (FAD), 4.0 ± 1 µM.

B1: Histidine-tagged M. tuberculosis ThyX (flavin-dependent thymidylate synthase) (enzyme)
chain: MAETAPLRVQLIAKTDFLAPPDVPWTTDADGGPALVEFAGRACYQSWSKPNPKTATNAGYLRHIIDVGHFSVLEHASVSFYITGISRSCTHELIRHRHFSYSQLSQRYVPEKDSRVVVPPGMEDDADLRHILTEAADAARATYSELLAKLEAKFADQPNAILRRKQARQAARAVLPNATETRIVVTGNYRAWRHFIAMRASEHADVEIRRLAIECLRQLAAVAPAVFADFEVTTLADGTEVATSPLATEA
notes: also called FDTS
On to B1, for which the “stoichiometry N” value in the series “SEC” was 4.
